Results as given in patent publication CN101300273A.

Key:
人肿瘤细胞上的TR-2 (human) [1] = target: 人肿瘤细胞上的TR-2 (human) (UniProt O14763); experiment: cell-based assay, 10 μg/ml M412, anti-mouse IgG Fc-HRP, isotype control subtracted; breast cancer line T-47D
人肿瘤细胞上的TR-2 (human) [2] = target: 人肿瘤细胞上的TR-2 (human) (UniProt O14763); experiment: cell-based assay, 10 μg/ml M412, anti-mouse IgG Fc-HRP, isotype control subtracted; breast cancer line HS 578.T
人肿瘤细胞上的TR-2 (human) [3] = target: 人肿瘤细胞上的TR-2 (human) (UniProt O14763); experiment: cell-based assay, 10 μg/ml M412, anti-mouse IgG Fc-HRP, isotype control subtracted; non-small cell lung cancer line NCI-H2126
人肿瘤细胞上的TR-2 (human) [4] = target: 人肿瘤细胞上的TR-2 (human) (UniProt O14763); experiment: cell-based assay, 10 μg/ml M412, anti-mouse IgG Fc-HRP, isotype control subtracted; colon cancer line HT-29
人肿瘤细胞上的TR-2 (human) [5] = target: 人肿瘤细胞上的TR-2 (human) (UniProt O14763); experiment: cell-based assay, 10 μg/ml M412, anti-mouse IgG Fc-HRP, isotype control subtracted; colon cancer line SW-707
人肿瘤细胞上的TR-2 (human) [6] = target: 人肿瘤细胞上的TR-2 (human) (UniProt O14763); experiment: cell-based assay, 10 μg/ml M412, anti-mouse IgG Fc-HRP, isotype control subtracted; non-small cell lung cancer line HOP-62 (first mention)
人肿瘤细胞上的TR-2 (human) [7] = target: 人肿瘤细胞上的TR-2 (human) (UniProt O14763); experiment: cell-based assay, 10 μg/ml M412, anti-mouse IgG Fc-HRP, isotype control subtracted; colon cancer line HCC-2998
人肿瘤细胞上的TR-2 (human) [8] = target: 人肿瘤细胞上的TR-2 (human) (UniProt O14763); experiment: cell-based assay, 10 μg/ml M412, anti-mouse IgG Fc-HRP, isotype control subtracted; melanoma line RPMI 7951
人肿瘤细胞上的TR-2 (human) [9] = target: 人肿瘤细胞上的TR-2 (human) (UniProt O14763); experiment: cell-based assay, 10 μg/ml M412, anti-mouse IgG Fc-HRP, isotype control subtracted; colon cancer line KM-12
人肿瘤细胞上的TR-2 (human) [10] = target: 人肿瘤细胞上的TR-2 (human) (UniProt O14763); experiment: cell-based assay, 10 μg/ml M412, anti-mouse IgG Fc-HRP, isotype control subtracted; prostate cancer line 22Rv1
人肿瘤细胞上的TR-2 (human) [11] = target: 人肿瘤细胞上的TR-2 (human) (UniProt O14763); experiment: cell-based assay, 10 μg/ml M412, anti-mouse IgG Fc-HRP, isotype control subtracted; prostate cancer line DU 145
人肿瘤细胞上的TR-2 (human) [12] = target: 人肿瘤细胞上的TR-2 (human) (UniProt O14763); experiment: cell-based assay, 10 μg/ml M412, anti-mouse IgG Fc-HRP, isotype control subtracted; melanoma line LOX IMVI
人肿瘤细胞上的TR-2 (human) [13] = target: 人肿瘤细胞上的TR-2 (human) (UniProt O14763); experiment: cell-based assay, 10 μg/ml M412, anti-mouse IgG Fc-HRP, isotype control subtracted; kidney cancer line Caki-1
人肿瘤细胞上的TR-2 (human) [14] = target: 人肿瘤细胞上的TR-2 (human) (UniProt O14763); experiment: cell-based assay, 10 μg/ml M412, anti-mouse IgG Fc-HRP, isotype control subtracted; lung cancer line A549
人肿瘤细胞上的TR-2 (human) [15] = target: 人肿瘤细胞上的TR-2 (human) (UniProt O14763); experiment: cell-based assay, 10 μg/ml M412, anti-mouse IgG Fc-HRP, isotype control subtracted; melanoma line UACC-62
人肿瘤细胞上的TR-2 (human) [16] = target: 人肿瘤细胞上的TR-2 (human) (UniProt O14763); experiment: cell-based assay, 10 μg/ml M412, anti-mouse IgG Fc-HRP, isotype control subtracted; prostate cancer line LNCaP
人肿瘤细胞上的TR-2 (human) [17] = target: 人肿瘤细胞上的TR-2 (human) (UniProt O14763); experiment: cell-based or functional assay
人肿瘤细胞上的TR-2 (human) [18] = target: 人肿瘤细胞上的TR-2 (human) (UniProt O14763); experiment: cell-based assay, 10 μg/ml M412, anti-mouse IgG Fc-HRP, isotype control subtracted; CNS cancer line SF-295
人肿瘤细胞上的TR-2 (human) [19] = target: 人肿瘤细胞上的TR-2 (human) (UniProt O14763); experiment: cell-based assay, 10 μg/ml M412, anti-mouse IgG Fc-HRP, isotype control subtracted; kidney cancer line UO-31
人肿瘤细胞上的TR-2 (human) [20] = target: 人肿瘤细胞上的TR-2 (human) (UniProt O14763); experiment: cell-based assay, 10 μg/ml M412, anti-mouse IgG Fc-HRP, isotype control subtracted; colon cancer line SW-948
人肿瘤细胞上的TR-2 (human) [21] = target: 人肿瘤细胞上的TR-2 (human) (UniProt O14763); experiment: cell-based assay, 10 μg/ml M412, anti-mouse IgG Fc-HRP, isotype control subtracted; non-small cell lung cancer line HOP-62 (second mention)
人肿瘤细胞上的TR-2 (human) [22] = target: 人肿瘤细胞上的TR-2 (human) (UniProt O14763); experiment: cell-based assay, 10 μg/ml M412, anti-mouse IgG Fc-HRP, isotype control subtracted; liver cancer line NCI-SNU-1
人肿瘤细胞上的TR-2 (human) [23] = target: 人肿瘤细胞上的TR-2 (human) (UniProt O14763); experiment: cell-based assay, 10 μg/ml M412, anti-mouse IgG Fc-HRP, isotype control subtracted; colon cancer line HCT-116
人肿瘤细胞上的TR-2 (human) [24] = target: 人肿瘤细胞上的TR-2 (human) (UniProt O14763); experiment: cell-based assay, 10 μg/ml M412, anti-mouse IgG Fc-HRP, isotype control subtracted; non-small cell lung cancer line NCI-H460
人肿瘤细胞上的TR-2 (human) [25] = target: 人肿瘤细胞上的TR-2 (human) (UniProt O14763); experiment: cell-based assay, 10 μg/ml M412, anti-mouse IgG Fc-HRP, isotype control subtracted; kidney cancer line Caki-2
人肿瘤细胞上的TR-2 (human) [26] = target: 人肿瘤细胞上的TR-2 (human) (UniProt O14763); experiment: cell-based assay, 10 μg/ml M412, anti-mouse IgG Fc-HRP, isotype control subtracted; kidney cancer line SN12C
人肿瘤细胞上的TR-2 (human) [27] = target: 人肿瘤细胞上的TR-2 (human) (UniProt O14763); experiment: cell-based assay, 10 μg/ml M412, anti-mouse IgG Fc-HRP, isotype control subtracted; ovarian cancer line IGROV1
人肿瘤细胞上的TR-2 (human) [28] = target: 人肿瘤细胞上的TR-2 (human) (UniProt O14763); experiment: cell-based assay, 10 μg/ml M412, anti-mouse IgG Fc-HRP, isotype control subtracted; line A 673 (listed under leukemia)
人肿瘤细胞上的TR-2 (human) [29] = target: 人肿瘤细胞上的TR-2 (human) (UniProt O14763); experiment: cell-based assay, 10 μg/ml M412, anti-mouse IgG Fc-HRP, isotype control subtracted; breast cancer line MDA-MB-231
人肿瘤细胞上的TR-2 (human) [30] = target: 人肿瘤细胞上的TR-2 (human) (UniProt O14763); experiment: cell-based assay, 10 μg/ml M412, anti-mouse IgG Fc-HRP, isotype control subtracted; CNS cancer line U251

Chain of UniProt O14763 (O14763 56-440): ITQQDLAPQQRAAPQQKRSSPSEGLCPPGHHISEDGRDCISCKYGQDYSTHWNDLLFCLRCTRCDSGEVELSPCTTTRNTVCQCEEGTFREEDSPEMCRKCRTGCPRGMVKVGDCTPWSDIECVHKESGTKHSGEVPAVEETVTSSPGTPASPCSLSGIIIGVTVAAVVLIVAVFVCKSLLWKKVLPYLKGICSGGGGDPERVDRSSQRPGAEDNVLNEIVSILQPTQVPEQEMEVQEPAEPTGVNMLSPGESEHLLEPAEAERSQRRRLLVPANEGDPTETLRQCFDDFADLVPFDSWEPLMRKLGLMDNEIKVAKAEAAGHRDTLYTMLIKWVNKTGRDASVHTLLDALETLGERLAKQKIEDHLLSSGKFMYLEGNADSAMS

B1: 小鼠抗TR-2抗体M412 (antibody, mouse IgG1, V domains shown)
VH: KVQLQQSGTELVKPGASVKLSCKASGYTFTEYIIHWVKQRSGQGLEWIGWFYPGSGYIKYNEKFKDKATMTADKSSSTVYMELSRLTSEDSAVYFCTRHEEDGYYAAYWGQGTLVTVSA
VL: DIVMTQSHKFMSTSVGDRVSITCKASQDVSSAVAWYQQKPGQSPKLLIYWASTRHTGVPDRFTGSGSGTDYTLTISSVQAEDLALYYCQQHYSTPYTFGGGTKLEIKR
Question: With B1 as the binder, how does the OD450nm (人肿瘤细胞上的TR-2 (human) [1]) read?
Answer: 0.366 OD450

Question: What about the OD450nm (人肿瘤细胞上的TR-2 (human) [2]) of the same binder?
Answer: 0.403 OD450

Question: And the OD450nm (人肿瘤细胞上的TR-2 (human) [3])?
Answer: 0.501 OD450

Question: And the OD450nm (人肿瘤细胞上的TR-2 (human) [4])?
Answer: 0.869 OD450

Question: What about the OD450nm (人肿瘤细胞上的TR-2 (human) [5]) of the same binder?
Answer: 0.323 OD450

Question: What about the OD450nm (人肿瘤细胞上的TR-2 (human) [6]) of the same binder?
Answer: 0.313 OD450

Question: What about the OD450nm (人肿瘤细胞上的TR-2 (human) [7]) of the same binder?
Answer: 0.635 OD450

Question: And the OD450nm (人肿瘤细胞上的TR-2 (human) [8])?
Answer: 0.322 OD450

Question: What about the OD450nm (人肿瘤细胞上的TR-2 (human) [9]) of the same binder?
Answer: 0.77 OD450

Question: And the OD450nm (人肿瘤细胞上的TR-2 (human) [10])?
Answer: 0.301 OD450

Question: What about the OD450nm (人肿瘤细胞上的TR-2 (human) [11]) of the same binder?
Answer: 0.372 OD450

Question: And the OD450nm (人肿瘤细胞上的TR-2 (human) [12])?
Answer: 0.573 OD450

Question: And the OD450nm (人肿瘤细胞上的TR-2 (human) [13])?
Answer: 0.93 OD450

Question: What about the OD450nm (人肿瘤细胞上的TR-2 (human) [14]) of the same binder?
Answer: 0.381 OD450

Question: And the OD450nm (人肿瘤细胞上的TR-2 (human) [15])?
Answer: 0.319 OD450

Question: And the OD450nm (人肿瘤细胞上的TR-2 (human) [16])?
Answer: 0.63 OD450

Question: What about the ED50 (细胞存活减少50%, 3H-胸苷掺入), COLO 205细胞 (人肿瘤细胞上的TR-2 (human) [17]) of the same binder?
Answer: 1.85 µg/mL

Question: And the ED50 (细胞存活减少50%, 3H-胸苷掺入), MDA-231细胞 (人肿瘤细胞上的TR-2 (human) [17])?
Answer: 0.6 µg/mL

Question: What about the ED50 (细胞存活减少50%, 3H-胸苷掺入), WM35细胞 (人肿瘤细胞上的TR-2 (human) [17]) of the same binder?
Answer: 1.85 µg/mL

Question: And the ED50 (细胞存活减少50%, 3H-胸苷掺入), WM793细胞 (人肿瘤细胞上的TR-2 (human) [17])?
Answer: 1.85 µg/mL

Question: And the OD450nm (人肿瘤细胞上的TR-2 (human) [18])?
Answer: 0.354 OD450

Question: And the OD450nm (人肿瘤细胞上的TR-2 (human) [19])?
Answer: 0.331 OD450

Question: What about the OD450nm (人肿瘤细胞上的TR-2 (human) [20]) of the same binder?
Answer: 0.423 OD450

Question: And the OD450nm (人肿瘤细胞上的TR-2 (human) [21])?
Answer: 0.47 OD450

Question: What about the OD450nm (人肿瘤细胞上的TR-2 (human) [22]) of the same binder?
Answer: 0.354 OD450

Question: And the OD450nm (人肿瘤细胞上的TR-2 (human) [23])?
Answer: 0.41 OD450

Question: And the OD450nm (人肿瘤细胞上的TR-2 (human) [24])?
Answer: 0.326 OD450

Question: And the OD450nm (人肿瘤细胞上的TR-2 (human) [25])?
Answer: 0.443 OD450

Question: What about the OD450nm (人肿瘤细胞上的TR-2 (human) [26]) of the same binder?
Answer: 0.313 OD450

Question: And the OD450nm (人肿瘤细胞上的TR-2 (human) [27])?
Answer: 0.312 OD450

Question: What about the OD450nm (人肿瘤细胞上的TR-2 (human) [28]) of the same binder?
Answer: 0.347 OD450

Question: What about the OD450nm (人肿瘤细胞上的TR-2 (human) [29]) of the same binder?
Answer: 0.408 OD450

Question: And the OD450nm (人肿瘤细胞上的TR-2 (human) [30])?
Answer: 0.323 OD450
